Laboratory results taken from US20260035459A1 (AVA LIFESCIENCE, published 2026).

B1: humanized anti-IGLV3-21^R110 antibody HC6-LC6 (antibody, human IgG1, V domains shown)
VH: QVQLQESGPGLVKPSETLSLTCTVSGFSLTSYGIHWIRQSPGRGLEWIGVIWRGGGTDSNAAFMSRVTISVDTSKSQVSLKLGSVTAADTAIYYCARSRYDEEESMNYWGQGTSVTVSS
VL: EIVLTQSPSSLSASVGDSVTITCRASGNIHSYLAWYQQKPGKAPKLLIYNAKTLADGVPSRFSGSGSGTQYTLTISSLQPEDFATYYCQHFWNTPPTFGAGTKLELK
notes: VH fused to a human IgG1 constant domain and VL to a human Ig kappa constant domain; Expressed in CHO cells
B2: humanized anti-IGLV3-21^R110 antibody HC6-LC7 (antibody, human IgG1, V domains shown)
VH: QVQLQESGPGLVKPSETLSLTCTVSGFSLTSYGIHWIRQSPGRGLEWIGVIWRGGGTDSNAAFMSRVTISVDTSKSQVSLKLGSVTAADTAIYYCARSRYDEEESMNYWGQGTSVTVSS
VL: QIQLTQSPSFLSASVGDSVTITCRASGNIHSYLAWYQQKPGKAPQLLIYNAKTLADGVPSRFSGSGSGTEYTLTISSLQPEDFATYYCQHFWNTPPTFGAGTKLELK
notes: Expressed in CHO cells
B3: humanized anti-IGLV3-21^R110 antibody HC7-LC6 (antibody, human IgG1, V domains shown)
VH: QVQLQESGPGLVKPSETLSLTCTVSGFSLTSYGIHWIRQSPGRGLEWIGVIWRGGGTDSNAAFMSRITISRDTSKTQVSLKLGSVTAADTAIYYCARSRYDEEESMNYWGQGTSVTVSS
VL: EIVLTQSPSSLSASVGDSVTITCRASGNIHSYLAWYQQKPGKAPKLLIYNAKTLADGVPSRFSGSGSGTQYTLTISSLQPEDFATYYCQHFWNTPPTFGAGTKLELK
notes: Expressed in CHO cells
B4: humanized anti-IGLV3-21^R110 antibody HC7-LC7 (antibody, human IgG1, V domains shown)
VH: QVQLQESGPGLVKPSETLSLTCTVSGFSLTSYGIHWIRQSPGRGLEWIGVIWRGGGTDSNAAFMSRITISRDTSKTQVSLKLGSVTAADTAIYYCARSRYDEEESMNYWGQGTSVTVSS
VL: QIQLTQSPSFLSASVGDSVTITCRASGNIHSYLAWYQQKPGKAPQLLIYNAKTLADGVPSRFSGSGSGTEYTLTISSLQPEDFATYYCQHFWNTPPTFGAGTKLELK
notes: Expressed in CHO cells
B5: humanized anti-IGLV3-21^R110 antibody HC6-LC8 (antibody, human IgG1, V domains shown)
VH: QVQLQESGPGLVKPSETLSLTCTVSGFSLTSYGIHWIRQSPGRGLEWIGVIWRGGGTDSNAAFMSRVTISVDTSKSQVSLKLGSVTAADTAIYYCARSRYDEEESMNYWGQGTSVTVSS
VL: EIVLTQSPATLSLSPGERATLSCRASGNIHSYLAWYQQKPGQAPRLLIYNAKTLADGIPARFSGSGSGTDYTLTISSLEPEDFASYYCQHFWNTPPTFGAGTKLELK
notes: Expressed in CHO cells
B6: humanized anti-IGLV3-21^R110 antibody HC6-LC9 (antibody, human IgG1, V domains shown)
VH: QVQLQESGPGLVKPSETLSLTCTVSGFSLTSYGIHWIRQSPGRGLEWIGVIWRGGGTDSNAAFMSRVTISVDTSKSQVSLKLGSVTAADTAIYYCARSRYDEEESMNYWGQGTSVTVSS
VL: EIVLTQSPGTLSLSPGERATLSCRASGNIHSYLAWYQQKPGQAPRLLIYNAKTLADGIPDRFSGSGSGTDYTLTISRLEPEDFAVYYCQHFWNTPPTFGAGTKLELK
notes: Expressed in CHO cells
B7: humanized anti-IGLV3-21^R110 antibody HC7-LC8 (antibody, human IgG1, V domains shown)
VH: QVQLQESGPGLVKPSETLSLTCTVSGFSLTSYGIHWIRQSPGRGLEWIGVIWRGGGTDSNAAFMSRITISRDTSKTQVSLKLGSVTAADTAIYYCARSRYDEEESMNYWGQGTSVTVSS
VL: EIVLTQSPATLSLSPGERATLSCRASGNIHSYLAWYQQKPGQAPRLLIYNAKTLADGIPARFSGSGSGTDYTLTISSLEPEDFASYYCQHFWNTPPTFGAGTKLELK
notes: Expressed in CHO cells
B8: humanized anti-IGLV3-21^R110 antibody HC7-LC9 (antibody, human IgG1, V domains shown)
VH: QVQLQESGPGLVKPSETLSLTCTVSGFSLTSYGIHWIRQSPGRGLEWIGVIWRGGGTDSNAAFMSRITISRDTSKTQVSLKLGSVTAADTAIYYCARSRYDEEESMNYWGQGTSVTVSS
VL: EIVLTQSPGTLSLSPGERATLSCRASGNIHSYLAWYQQKPGQAPRLLIYNAKTLADGIPDRFSGSGSGTDYTLTISRLEPEDFAVYYCQHFWNTPPTFGAGTKLELK
notes: Expressed in CHO cells

Biological target: T1, soluble recombinant IGLV3-21^R110-harboring B-cell receptor, monomeric human IgM (170.5 kDa) (human)
T1 construct: Made in 293-HEK cells by transient expression and used as the analyte in BLI; also called soluble IGLV3-21^R110 B-cell receptor; soluble form of the IGLV3-21^R110 BCR
Experiment: BLI (Fortebio Octet), antibody captured by anti-human IgG Fc, soluble BCR (monomeric IgM) as analyte, 1:1 model
From the text: In brief, to define the binding affinities of the antibodies to the IGLV3-21^R110-harboring B-cell receptor, a soluble recombinant version of the BCR (170.5 kDa; sequence according to SEQ ID NO: 52 for HC and 53 for LC) was produced in 293-HEK cell line as monomeric human IgM by transient expression using a protocol described in section 1.1 of this Example, and binding to immobilized anti-IGLV3-21^R110 antibodies was monitored by Bio-Layer Interferometry (BLI) on a Fortebio Octet instrument (Satorius). Kinetic assays were performed by first immobilizing the humanized anti IGLV3-21R110 antibodies onto biosensors through an indirect capturing reagent, anti-human lgG Fc antibody. Anti IGLV3-21^R110 antibodies were loaded at a concentration of 0.01875 μg/ml to generate an anti IGLV3-21^R110 antibody capture level of between 0.30 and 0.34 nm. A 9 nM BCR-fragment solution in running buffer (PBS, 0.02% Tween20, 0.1% BSA, 0.05% sodium acide) was prepared and serial diluted 1:3 to obtain 7 concentrations from 9 to 0.012 nM (9 nM, 3 nM, 1 nM, 0.333 nM, 0.111 nM, 0.037 nM, and 0.012 nM). The anti IGLV3-21 R110 antibody capture biosensors were then submerged in wells containing the different concentrations of the soluble BCR-fragment for 900 seconds (association stage) followed by a dissociation step of 1200 seconds in running buffer. Steps were performed at a constant shake speed of 1000 rpm. All reagents were used as described by the manufacturer. Sensorgrams were generated after double reference correction (buffer and blank sensors) to compensate for both the natural dissociation of the capture anti IGLV3-21^R110 antibody and also non-specific binding of the soluble BCR-fragment to the sensor surface. […] (KD) were calculated based on the ratio of association (ka) and dissociation rate (kd) constants, obtained by fitting sensorgrams with a first order 1:1 binding model using the Fortebio Data Analysis software (Satorius).

T1 sequence (heavy, as listed by the source limits assumed, chain 1 of 2): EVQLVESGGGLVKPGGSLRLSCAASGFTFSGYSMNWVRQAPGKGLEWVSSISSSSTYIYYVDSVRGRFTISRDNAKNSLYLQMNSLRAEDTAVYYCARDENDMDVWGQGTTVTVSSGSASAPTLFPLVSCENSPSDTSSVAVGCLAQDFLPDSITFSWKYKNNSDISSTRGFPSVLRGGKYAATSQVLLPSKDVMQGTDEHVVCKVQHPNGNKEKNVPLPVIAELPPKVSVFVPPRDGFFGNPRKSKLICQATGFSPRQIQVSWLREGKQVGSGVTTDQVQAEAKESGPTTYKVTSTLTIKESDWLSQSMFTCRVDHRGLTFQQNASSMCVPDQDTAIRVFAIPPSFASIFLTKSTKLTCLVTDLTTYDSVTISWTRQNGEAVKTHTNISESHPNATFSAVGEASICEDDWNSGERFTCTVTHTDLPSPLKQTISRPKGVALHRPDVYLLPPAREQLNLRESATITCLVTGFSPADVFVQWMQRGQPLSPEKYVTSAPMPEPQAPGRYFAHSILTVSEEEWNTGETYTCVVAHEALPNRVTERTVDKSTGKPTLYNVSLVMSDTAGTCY
T1 sequence (light, as listed by the source limits assumed, chain 2 of 2): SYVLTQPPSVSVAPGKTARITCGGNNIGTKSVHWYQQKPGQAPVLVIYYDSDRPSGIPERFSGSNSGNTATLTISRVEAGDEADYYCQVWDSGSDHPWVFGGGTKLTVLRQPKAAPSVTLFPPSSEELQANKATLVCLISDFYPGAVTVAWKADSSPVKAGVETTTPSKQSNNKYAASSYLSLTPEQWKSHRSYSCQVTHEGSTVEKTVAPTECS

| Binder | Kd [nM] |
| --- | --- |
| B1 | 0.211 |
| B2 | 0.347 |
| B3 | 0.175 |
| B4 | 0.269 |
| B5 | 0.277 |
| B6 | 0.291 |
| B7 | 0.249 |
| B8 | 0.313 |
